According to the supplement of paper PMC9170038:

Tested on: MS2 coat protein
Assay: apparent KD of MS2 coat protein; designed switch direction (-1 OFF switch, 1 ON switch): -1; higher = weaker reporter binding
Outline: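 Designed RNA switches with common flanks were transcribed on Illumina chips by stalled E. coli RNA polymerase and titrated with SNAP-549-labelled MS2 coat protein, from 0.7 or 1.5 nM doubling to 3 µM, in Tris-HCl pH 7.5 buffer with KCl, MgCl2, BSA, DTT, tRNA and Tween-20. Steps lasted 0.8–1.5 h (lowest) to 10–20 min (highest). Titrations ran without input, with 200 uM small-molecule ligand, or with an oligonucleotide input. Normalised cluster fluorescence was curve-fitted, and apparent KD is the per-design median over clusters.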

[1] = Eterna round: R95, input ligand: microRNA oligo, concentration not stated
[2] = input ligand: microRNA oligo, concentration not stated
[3] = Eterna round: R95, input ligand: FMN 200 uM
[4] = Eterna round: R95, input ligand: none

Row | Sequence | apparent KD of MS2 coat protein [1] [nM] | apparent KD of MS2 coat protein (input ligand: FMN 200 uM) [nM] | apparent KD of MS2 coat protein (input ligand: none) [nM] | also measured
1 | GUCGAGUGAGGAUAUGGUGAGUAGUGCCUGAGCGCUGCUCACCAGAAGGCACAUGAGGAUCACCCAUGUAUGAC [Mat - Exclusion 4 - Mod of JL - D12] (puzzle: Exclusion 4) | 17.8 | – | – | –
2 | UUUUAGGCAGGAUAUACAUUUUUUUUAUUAUCCUCAUUAUUACAUGAGGAUCACCCAUGUAGAAGGGCCAUUUU [My Design] (puzzle: Exclusion 2) | 38.5 | – | – | –
3 | ACAUGACUGCUAGGAUAUAGAUGACAUGAGGAUCACCCAUGUUAUCCCAUGUUGACGGAAACCGACUAGAAGGAGCAACAUAUG [Ex NG2 #8] (Eterna round: R96, puzzle: Exclusion NG 2) | – | 64.7 | 46.5 | apparent KD of MS2 coat protein [2]: 30.6 nM
4 | GAUCAUGCAGGAUAUACAUAAACCAUGAAAACAUGGCUCAAACAUGAGGAUCACCCAUGUAGAAGGGCAUGAUC [Omei Ex2 A19] (Eterna round: R97, puzzle: Exclusion 2) | – | 69.1 | 31.5 | –
5 | UCGGCGCGAGGAUAUACGUUUGCUUUUUAGGAUCGUGGCGUACAUGAGGAUCACCCAUGUAGAAGGCGCGCCGC [Apr-15 SS2-28] (puzzle: Exclusion 2) | 12.4 | – | – | –
6 | GUCAUACAUGAGGAUCACCCAUGUGAGGAUAUGGGCGGCGCCGCAAAAGCGGCGCCGCCCAGAAGGCGCAUGAU [Malcxlusion 5 - Jieux - Exclusion 1] (Eterna round: R97, puzzle: Exclusion 1) | – | 195 | 71.5 | –
7 | GGUUAUUGCAAGGAUAUGCUUUUUUGUGAAAUUGCAGAAGGUGCAACAUGAGGAUCACCCAUGUUGGAUGGGUU [JR_E6_Sub017] (puzzle: Exclusion 6) | 93.7 | – | – | –
8 | AAGAAUUUAUAGGAUAUCGAAAGUAUAAUUUAACGAGAAGGAUGAACAUGAGGAUCACCCAUGUGGUAUCAUGG [JL-ex6-3.09] (puzzle: Exclusion 6) | 232 | – | – | apparent KD of MS2 coat protein [3]: 145 nM; apparent KD of MS2 coat protein [4]: 304 nM
9 | UAAAAGAAAGUAAGGAUAUCUAAAUUGGAAAAGAGAGAGAAGGUACAUGAGGAUCACCCAUGUAGGGUAUCCUG [Ritien] (Eterna round: R97, puzzle: Brourd's mod of Exclusion 4) | – | 41.8 | 42.2 | –
10 | GGCCUACGAGGAUAUCGCUAGCGGGACAUGAGGAUCACCCAUGUGUCGGACCGCGUCAUGCGAGAAGGUGUAAUGA [Ribeceve] (puzzle: Exclusion 5) | 14.9 | – | – | –
11 | AGAAAGGCAGGAUAUCGAUAAUAAAACAUGAGGAUCACCCAUGUGAGGCCGCGUGUAACUCGAGAAGGGCUACACG [Biarquma] (puzzle: Exclusion 5) | 16.6 | – | – | apparent KD of MS2 coat protein [3]: 16.1 nM; apparent KD of MS2 coat protein [4]: 15.4 nM
12 | CUUGUGCAACAGGAUAUGUGCACGGCAGUAGCAACAGAAGGGUUGACAUGAGGAUCACCCAUGUUUACAAAGCG [Eternabot (Original) Solution 35] (Eterna round: R97, puzzle: Exclusion 6) | – | 132 | 137 | –
13 | CCCAGUUAGGAAGGAUAUUGUACAUGAGGAUCACCCAUGUAAUAAAUGAGGAUCUCGGAUGUCUACAAGAAGGUCCGGAUAGGC [Ostracism 11 - Jieux - Exclusion NG 2] (Eterna round: R96, puzzle: Exclusion NG 2) | – | 65.9 | 44.5 | apparent KD of MS2 coat protein [2]: 34.3 nM
14 | UCUGGUCGAGGAUAUGCAAUCGUGCUUCGGCACGUAAGGUCACAUGAGGAUCACCCAUGUAGAAGGCGACCAGA [E2/4-A3] (Eterna round: R97, puzzle: Exclusion 2) | – | 34.4 | 17.3 | –
15 | ACCCAACAUGAGGAUCACCCAUGUCAGGAUAUCCAUCUAUACUCGAAAGAGUAUAGAUGGAGAAGGGACAGAGG [ChP 04-04-2015 #4] (puzzle: Exclusion 1) | 104 | – | – | –
16 | UACAUGAGGAUCACCCAUGUUUUGUCGUGUAUGGUAUUUAUCUAGGAUAUCAAUUGUUUUAUUUAUGAGAAGGAGAAUAUUAAU [JMF's solution 56] (Eterna round: R96, puzzle: Exclusion NG 3) | – | – | – | apparent KD of MS2 coat protein [2]: 24.8 nM
17 | UCCGAACAUGAGGAUCACCCAUGUCAGGAUAUAUUAAAGAAAGCCCGCGAAUGUGGGUAUAGAAGGGACAUGAA [Zaatinxe] (Eterna round: R97, puzzle: Exclusion 1) | – | 15.8 | 15.6 | –
18 | UUUAAUUUUUUUUUUUUACAAGCUUUUUGCUCGUCUUAUACAUGAGGAUCACCCAUGUGGAUGGAAGAUAAAUUAUC [JMF 9] (puzzle: Sensor v3, turn-off variant 2) | 18.6 | – | – | apparent KD of MS2 coat protein [3]: 16.2 nM; apparent KD of MS2 coat protein [4]: 16.5 nM

Row | Sequence | apparent KD of MS2 coat protein [1] [nM] | apparent KD of MS2 coat protein (input ligand: FMN 200 uM) [nM] | apparent KD of MS2 coat protein (input ligand: none) [nM] | also measured
19 | UGCGGAAGAGGAUAUACAUUGAAUUUGAUUCAUGUAAAACUACAUGAGGAUCACCCAUGUAGAAGGCUUUCGCU [Mat - Exclusion 2 - JL Mod - D66] (Eterna round: R97, puzzle: Exclusion 2) | – | 33.7 | 17.7 | –
20 | CUGAGUAGUCAGGAUAUGCUGUACAAAAGUACAGCAGAAGGGAUUACAUGAGGAUCACCCAUGUGAACUUCAUG [)mei Ex6 B21] (Eterna round: R97, puzzle: Exclusion 6) | – | 681 | 652 | –
21 | UUUUAACAUGAGGAUCACCCAUGUGAGGAUAUCGAAAUUUAUAUUAAUAUUAUUAUAUCGAGAAGGCACAUUUU [JMF 40] (puzzle: Exclusion 1) | 86.6 | – | – | –
22 | ACGCAUUGCCUUUGGUAGUGCGUAACAUGAGGAUCACCCAUGUAGGAUAUGGUAGGCUUUGCUUACCAGAAGGACAUUAUAAAG [Mat - Exclusion NG 3 - Mod of JL - D10] (Eterna round: R96, puzzle: Exclusion NG 3) | – | 51.6 | 34.1 | apparent KD of MS2 coat protein [2]: 28.4 nM
23 | AUGUUGCGAGGAUAUAUAUGGAGGUUAAAAUUUGAUAUGGAACAUGAGGAUCACCCAUGUAGAAGGUGCAUAAC [JR_Ex2_Sub039] (Eterna round: R97, puzzle: Exclusion 2) | – | 155 | 57.5 | –
24 | UUUGCAAGCUAAAGAUCCCACAUGAGGAUCACCCAUGUUGCUGCCGUGAGGUAGCAUUUAACUUUUGCUCGUCUUAU [JL TOV1 3.49] (Eterna round: R97, puzzle: Sensor, turn-off variant 1) | – | 282 | 300 | –
25 | GGUGCGUUUGUGAGGAUAUGCUGGUCCUUGGAUCAGCAGAAGGCACAUGAGGAUCACCCAUGUGGUGUCCGUCC [salish99_Bmod_Ex4_039] (puzzle: Brourd's mod of Exclusion 4) | 180 | – | – | –
26 | CCUAUGUGAGGAUAUCACUGGUCUUCUUUUAUUUUUUACAGUGAGAAGGCACAUGAGGAUCACCCAUGUCGGUG [Ex4 - 3 - 49] (Eterna round: R96, puzzle: Exclusion 4) | – | 98.4 | 192 | apparent KD of MS2 coat protein [2]: 115 nM
27 | CUGCUCCGUGUAGGAUAUGCGCGCAACCAACGCGCAGAAGGACAUGAGGAUCACCCAUGUAUGUUAUUAUCACGUGAGGCGCAA [Design 32] (Eterna round: R96, puzzle: Exclusion NG 1) | – | 25.7 | 18.5 | apparent KD of MS2 coat protein [2]: 13.8 nM
28 | GUCAGCUCGUGAGGAUAUACAUGCGUGCUUCGGCACGUAUGAUAGAUCACAUGAGGAUCACCCAUGUAGAAGGUACGAGCUGAC [ENG2/4-C1] (Eterna round: R96, puzzle: Exclusion NG 2) | – | 13.4 | 14.8 | apparent KD of MS2 coat protein [2]: 12.2 nM
29 | GGUCGACAUGAGGAUCACCCAUGUCAGGAUAUCGUCACUGGAGCUUCGGCUCCAGUGACGAGAAGGGAUAUAAU [E1/15-A1] (Eterna round: R97, puzzle: Exclusion 1) | – | 24.6 | 36.9 | –
30 | CUUAGACAUGAGGAUCACCCAUGUGAGGAUAUGAUGCGAUCGUGCUGACAUGAUCGCAUCAGAAGGCACAUAUG [JL-ex1-01 Hyphema Mod2] (puzzle: Exclusion 1) | 120 | – | – | –
31 | GCAGUGCGAGGAUAUACAUGAGGAUCACCCAUGUGAGAAUAAUAAGUGAGGAAGAAAAGUAGAAGGCGCGUUGG [Mat - Exclusion 3 - Mod of Salish D67] (puzzle: Exclusion 3) | 41.1 | – | – | apparent KD of MS2 coat protein [3]: 103 nM; apparent KD of MS2 coat protein [4]: 46.8 nM
32 | UAUUAGCAAGCGAGAUCCCACAUGAGGAUCACCCAUGUGCUCGUCUUAUAAAAGACUGUGACGAGAGUCACGGUCAC [Mat - Sensor, turn-off var - Eli Mod - D23] (Eterna round: R97, puzzle: Sensor, turn-off variant 1) | – | 13.7 | 12 | –
33 | UCGCUGCGAGGAUAUACAUGAGGAUCACCCAUGUACGGGUCCGGGUCUUUGUCUAUUGGUAGAAGGCGCAGUGA [JL Laongeedie mod 9] (puzzle: Exclusion 3) | 51.5 | – | – | –
34 | GGUGCGUAUGUGAGGAUAUGCUGGUCCUUGGAUCAGCAGAAGGCACAUGAGGAUCACCCAUGUGGUGUCGUACA [salish99_Bmod_Ex4_014] (puzzle: Brourd's mod of Exclusion 4) | 255 | – | – | –
35 | CACGAAUUGUGAGGAUAUGUGCGACAAAGUUGCACAGAAGGCACAUGAGGAUCACCCAUGUAAGCUAGGUCGAAAGACCUAGCG [Omei Exc(NG)1 Av1] (Eterna round: R96, puzzle: Exclusion NG 1) | – | 215 | 56.4 | apparent KD of MS2 coat protein [2]: 22.7 nM
36 | CUGACGUCAGGAUAUAGCAUACACUGACUAGAUGGACAGGGUUAGAAGGGACAUGAGGAUCACCCAUGUGGUUU [Eternabot (L1) Solution 81] (Eterna round: R97, puzzle: Exclusion 4) | – | 56.3 | 50.5 | –
